This assay deals with COL4A3 (immobilised as Fc-rat COL4A3 or COL4A3-His). The assay can be described thus: BLI (Octet RED96); COL4A3 immobilised (Fc-rat COL4A3 on anti-human Fc or COL4A3-His on HIS1K, not said which), test article titrated from 50 nM. Background: In BLI a coated tip is dipped into the sample, and binding shifts an interference pattern.

B1: CDAB14 (scFv)
chain: DCGPPPDIPNARPILGRHSKFAEQSKVAYSCNNGFKQVPDKSNIVVCLENGQWSSHETFCEKSCVAPERLSFASLKKEYLNMNFFPVGTIVEYECRPGFRKQPPLPGKATCLEDLVWSPVAQFCKKKSCPNPKDLDNGHINIPTGILFGSEINFSCNPGYRLVGVSSTFCSVTGNTVDWDDEFPVCTEIHCPEPPKINNGIMRGESDSYTYSQVVTYSCDKGFILVGNASIYCTVSKSDVGQWSSPPPRCIEKSKVPTKKPTINVPSTGTPSTPQKPTTESVPNPGDQPTPQKPSTVKVSATQHVPVTKTTVRHPIRTSTDKGEPNTGGGGGSGGGGSGGGGSGGGGSQVQLLESGPGLVKPSGTLSLTCTVSGGSISSTNWWTWVRQSPGTGLEWIGHIYHSGSTDYNPSLKSRVTISIDKSKNQFSLKMTSVTAADTAVYYCACAAQYHWKGLDPWGHGTLVTVSSGGGGGSGGGGSGGGGSDIVMTQTPLSLSVTPGQPASISCMSSQSLLHSDGKTYLYWYLQKPGQPPQLLIYEVSNRFSGVPDRFSGSGSGTDFTLKISRVEAEDVGIYYCMQSIQLPITFGQGTRLEIKHHHHHH
Broadly, the Kd is the concentration at which binding is half-saturated. Higher therefore signals weaker binding. As to B1, the equilibrium dissociation constant (Kd) was 23 µM.
